This passage reports EC50 results from patent US20230212294A1.

Experiment [1] addresses Human B7-H3-his (human) (UniProt Q5ZPR3). The experiment is described as follows: ELISA, human B7-H3 at protein level (second run). Background: ELISA stands for enzyme-linked immunosorbent assay.
Experiment [2] has the same target. The experiment is described as follows: ELISA, antigen coated at 2 µg/mL.

B1: IL-P5-B01 (antibody, V domains shown)
VH: EVQLQESGPSLVKPSQTLSLTCSVTGDSITSGSWNWIRKFPGNKLEYMGYISYSGSIYYNPSLKSRISITRDTSKNQYYLQLNSVTTEDTATYYCARGNPAWFAYWGQGTLVTVSA
VL: DIVMTQSQKFMSTSVGDRVSVTCKASQNVGTNVAWYQQKPGQSPKALIYSASYRYSGVPDRFTGSGSGTDFTLTISNVQSEDLAEYFCQQYNSYPYTFGGGTKLEIK
The term EC50 denotes the midpoint of the concentration-response curve. High values mean lower potency in that assay, low ones higher potency in that assay. On to B1, for which the concentration giving a half-maximal response (EC50) in the experiment with Human B7-H3-his (human) [1] was 0.248 µg/mL; with Human B7-H3-his (human) [2] it was 0.137 µg/mL.

B2: IL-P7-A06 (antibody, V domains shown)
VH: QVQLQQSGPEVVRPGVSVKISCKGSGYTFTDYAMHWVKQSHAKSLEWIGIINTYNGNTNYNQKFKGKATMTVDKSSSTAYMEFARLTSEDSAIYYCARSRGPWDRYFDVWGAGTTVTVSS
VL: DIVMTQSQKFMSTSVGDRVSVTCKASQNVGTAVAWYQQKPGQSPKLLIYSASNRYTGVPDRFTGSGSGTDFTLTISNMQSEDLADYFCQQYSSYPFTFGSGTKLEIK
Regarding B2, the EC50 with Human B7-H3-his (human) [1] amounted to 0.172 µg/mL; in the experiment with Human B7-H3-his (human) [2], 0.195 µg/mL.

B3: IL-P7-C05-H4L3 (antibody, V domains shown)
VH: EVQLVESGGGLVQPGGSLRLSCAASGFTFSSYAMSWVRQAPGKGLELVAAINSNGGSTYYADSVKGRFTISRDNAKNTLYLQMSSLRAEDTAVYYCTRNEEFRRGLAYWGQGTLVTVSS
VL: DIQMTQSPSSLSASVGDRVTITCRASENIYSNLAWYQQKPGKAPKLLIYAASNLQSGVPSRFSGSGSGTDYTLTISSLQPEDFATYYCQHFWGTPPWTFGQGTKLEIK
On to B3, for which the EC50 with Human B7-H3-his (human) [1] was 0.0395 µg/mL.

B4: IL-P7-C05-H2L2 (antibody, V domains shown)
VH: EVQLVESGGGLVQPGGSLRLSCAASGFTFSSYGMSWVRQAPGKGLELVATINSNGGTTYYADSVKGRFTISRDNAKNTLYLQMSSLRAEDTAVYYCTRNEEFRRGLAYWGQGTLVTVSS
VL: DIQMTQSPSSLSASVGDRVTITCRASENIYSNLAWYQQKPGKAPKLLVYAATNLQSGVPSRFSGSGSGTDYTLTISSLQPEDFATYYCQHFWGTPPWTFGQGTKLEIK
Consider B4, for which, in the experiment with Human B7-H3-his (human) [1], the 50% effective concentration (EC50) was 0.051 µg/mL.

B5: IL-P7-C05-H4L1 (antibody, V domains shown)
VH: EVQLVESGGGLVQPGGSLRLSCAASGFTFSSYAMSWVRQAPGKGLELVAAINSNGGSTYYADSVKGRFTISRDNAKNTLYLQMSSLRAEDTAVYYCTRNEEFRRGLAYWGQGTLVTVSS
VL: DIQMTQSPSSLSASVGDRVTITCRASENIYSNLAWYQQKPGKAPKLLVYAATNLADGVPSRFSGSGSGTDYTLTISSLQPEDFATYYCQHFWGTPPWTFGQGTKLEIK
B5: in the experiment with Human B7-H3-his (human) [1], the EC50 is 0.035 µg/mL.

B6: IL-P7-C05-H3L1 (antibody, V domains shown)
VH: EVQLVESGGGLVQPGGSLRLSCAASGFTFSSYGMSWVRQAPGKGLELVAAINSNGGSTYYADSVKGRFTISRDNAKNTLYLQMSSLRAEDTAVYYCTRNEEFRRGLAYWGQGTLVTVSS
VL: DIQMTQSPSSLSASVGDRVTITCRASENIYSNLAWYQQKPGKAPKLLVYAATNLADGVPSRFSGSGSGTDYTLTISSLQPEDFATYYCQHFWGTPPWTFGQGTKLEIK
Regarding B6, the EC50 in the experiment with Human B7-H3-his (human) [1] amounted to 0.026 µg/mL.

B7: IL-P7-C05-H3L3 (antibody, V domains shown)
VH: EVQLVESGGGLVQPGGSLRLSCAASGFTFSSYGMSWVRQAPGKGLELVAAINSNGGSTYYADSVKGRFTISRDNAKNTLYLQMSSLRAEDTAVYYCTRNEEFRRGLAYWGQGTLVTVSS
VL: DIQMTQSPSSLSASVGDRVTITCRASENIYSNLAWYQQKPGKAPKLLIYAASNLQSGVPSRFSGSGSGTDYTLTISSLQPEDFATYYCQHFWGTPPWTFGQGTKLEIK
Molecule B7 had an EC50 in the experiment with Human B7-H3-his (human) [1] of 0.071 µg/mL. This EC50 is about 2.7-fold higher than that of the molecule before.

B8: IL-P7-C05-H2L1 (antibody, V domains shown)
VH: EVQLVESGGGLVQPGGSLRLSCAASGFTFSSYGMSWVRQAPGKGLELVATINSNGGTTYYADSVKGRFTISRDNAKNTLYLQMSSLRAEDTAVYYCTRNEEFRRGLAYWGQGTLVTVSS
VL: DIQMTQSPSSLSASVGDRVTITCRASENIYSNLAWYQQKPGKAPKLLVYAATNLADGVPSRFSGSGSGTDYTLTISSLQPEDFATYYCQHFWGTPPWTFGQGTKLEIK
The molecule B8 displayed an EC50 with Human B7-H3-his (human) [1] of 0.111 µg/mL.

B9: IL-P5-C06-H2L2 (antibody, V domains shown)
VH: QVQLVQSGAEVKKPGASVKVSCKGSGYTFTDYAIHWGRQAPGQGLEWIGIINTYNGNSNYAQKFQGRATMTRDTSTSTAYMELSRLRSEDTAVYYCARNYGSSFNWYFDVWGQGTTVTVSS
VL: DIQLTQSPSSLSASVGDRITITCRASSSISSNYLHWYQQKPGKAPKLLIYSTSNLASGVPSRFSGSGSGTDFTLTISSVQPEDFATYYCQQYSGYPLTFGQGTKLELK
B9 displayed an EC50 with Human B7-H3-his (human) [1] of 0.147 µg/mL.

B10: IL-P5-C06-H1L3 (antibody, V domains shown)
VH: QVQLVQSGAEVKKPGASVKVSCKGSGYTFTDYAIHWARQAPGQGLEWIGIINTYNGNSNYAQKFQGRATMTVDKSTSTAYMELSRLRSEDTAVYYCARNYGSSFNWYFDVWGQGTTVTVSS
VL: DIQLTQSPSSLSASVGDRVTITCRASSSISSNYLHWYQQKPGKAPKLLIYSTSNLASGVPSRFSGSGSGTDFTLTISSLQPEDFATYYCQQYSGYPLTFGQGTKLELK
In turn, B10 came in with an EC50 with Human B7-H3-his (human) [1] of 0.164 µg/mL.

B11: IL-P5-C06-H1L4 (antibody, V domains shown)
VH: QVQLVQSGAEVKKPGASVKVSCKGSGYTFTDYAIHWARQAPGQGLEWIGIINTYNGNSNYAQKFQGRATMTVDKSTSTAYMELSRLRSEDTAVYYCARNYGSSFNWYFDVWGQGTTVTVSS
VL: DIQMTQSPSSLSASVGDRVTITCRASSSISSNYLHWYQQKPGKAPKLLIYSTSNLQSGVPSRFSGSGSGTDFTLTISSLQPEDFATYYCQQYSGYPLTFGQGTKLELK
Regarding B11, the EC50 with Human B7-H3-his (human) [1] stood at 0.237 µg/mL.

B12: IL-P5-C06-H1L1 (antibody, V domains shown)
VH: QVQLVQSGAEVKKPGASVKVSCKGSGYTFTDYAIHWARQAPGQGLEWIGIINTYNGNSNYAQKFQGRATMTVDKSTSTAYMELSRLRSEDTAVYYCARNYGSSFNWYFDVWGQGTTVTVSS
VL: DIQLTQSPSSMSASVGDRITITCRASSSISSNYLHWYQQKPGKSPKLLIYSTSNLASGVPSRFSGSGSGTDYTLTISSVQPEDFATYYCQQYSGYPLTFGQGTKLELK
As for B12, in the experiment with Human B7-H3-his (human) [1], the EC50 amounted to 0.206 µg/mL.

B13: IL-P5-C06-H3L3 (antibody, V domains shown)
VH: QVQLVQSGAEVKKPGASVKVSCKASGYTFTDYAIHWGRQAPGQGLEWMGIINTYNGNSNYAQKFQGRVTMTRDTSTSTAYMELSRLRSEDTAVYYCARNYGSSFNWYFDVWGQGTTVTVSS
VL: DIQLTQSPSSLSASVGDRVTITCRASSSISSNYLHWYQQKPGKAPKLLIYSTSNLASGVPSRFSGSGSGTDFTLTISSLQPEDFATYYCQQYSGYPLTFGQGTKLELK
B13 had an EC50 in the experiment with Human B7-H3-his (human) [1] of 0.151 µg/mL.

B14: IL-P5-C06-H2L4 (antibody, V domains shown)
VH: QVQLVQSGAEVKKPGASVKVSCKGSGYTFTDYAIHWGRQAPGQGLEWIGIINTYNGNSNYAQKFQGRATMTRDTSTSTAYMELSRLRSEDTAVYYCARNYGSSFNWYFDVWGQGTTVTVSS
VL: DIQMTQSPSSLSASVGDRVTITCRASSSISSNYLHWYQQKPGKAPKLLIYSTSNLQSGVPSRFSGSGSGTDFTLTISSLQPEDFATYYCQQYSGYPLTFGQGTKLELK
The molecule B14 came in with an EC50 in the experiment with Human B7-H3-his (human) [1] of 0.223 µg/mL. The EC50 values of the last two molecules are within 1.5-fold of each other.

B15: IL-P5-C06-H3L4 (antibody, V domains shown)
VH: QVQLVQSGAEVKKPGASVKVSCKASGYTFTDYAIHWGRQAPGQGLEWMGIINTYNGNSNYAQKFQGRVTMTRDTSTSTAYMELSRLRSEDTAVYYCARNYGSSFNWYFDVWGQGTTVTVSS
VL: DIQMTQSPSSLSASVGDRVTITCRASSSISSNYLHWYQQKPGKAPKLLIYSTSNLQSGVPSRFSGSGSGTDFTLTISSLQPEDFATYYCQQYSGYPLTFGQGTKLELK
B15 registered an EC50 with Human B7-H3-his (human) [1] of 0.156 µg/mL.

B16: IL-P5-C06-H2L3 (antibody, V domains shown)
VH: QVQLVQSGAEVKKPGASVKVSCKGSGYTFTDYAIHWGRQAPGQGLEWIGIINTYNGNSNYAQKFQGRATMTRDTSTSTAYMELSRLRSEDTAVYYCARNYGSSFNWYFDVWGQGTTVTVSS
VL: DIQLTQSPSSLSASVGDRVTITCRASSSISSNYLHWYQQKPGKAPKLLIYSTSNLASGVPSRFSGSGSGTDFTLTISSLQPEDFATYYCQQYSGYPLTFGQGTKLELK
In the experiment with Human B7-H3-his (human) [1], B16 displayed a half-maximal effective concentration (EC50) of 0.151 µg/mL.

B17: IL-P6-C08 (antibody, V domains shown)
VH: EVKLVESGGDLVKPGGSLKLSCAASGFTFSSYGMSWVRQTSDKRLEWVATISGGGRYTYYPDSVKGRFTISRDSSKNTLYLQMSSLKSEDTAMYYCVRHYDGYLDYWGLGTTLTVSS
VL: DIQMIQSPASLSASVGETVTITCRASENIYSYLAWYQQKQGKSPQLLVYNAKTLAEGVPSRFSGSGSGTQFSLKINSLQPEDFGSYYCQHHYGTPPYTFGGGTKLEIK
In the case of B17, the EC50 with Human B7-H3-his (human) [1] was 0.088 µg/mL; with Human B7-H3-his (human) [2] it was 0.0424 µg/mL.

B18: IL-P6-C11 (antibody, V domains shown)
VH: EVQLQQSGPELVKPGASVRISCKTSGYTFTDYVIHWVKQNHGGSLEWIGGINRDSGGTTYNQKFQDKVTLTVDKSSNTAYMELRSLTSEDSAVYYCTKWKFPWYFDVWGAGTTVTVSS
VL: DIELTQSPAIMSASPGEKVTMTCSASSSISYMHWYQQKPGTSPKRWIYDTSKLASGVPARFSGSGSGTSYSLTISRVEAEDAATYYCQQWSSNPLTFGSGTKLEIK
As for B18, the EC50 is 0.182 µg/mL with Human B7-H3-his (human) [1] and 0.23 µg/mL in the experiment with Human B7-H3-his (human) [2].

B19: IL-P6-B07 (antibody, V domains shown)
VH: EVQLQQSGPELVKPGASVRISCKTSGYTFTEYVIHWVKQNHGGSLEWIGGINRDSGGTTYNQKFQDKVTLTVDKSSNTAYMELRSLTSEDSAVYYCTKWKFPWYFDVWGAGTTVTVSS
VL: DIVLTQSPAIMSASPGEKVTMTCSASSSVSYMHWYQQKSGTSPKRWIYDTSKLASGVPARFSGSGSGTSYSLTISSMEAEDAATYYCQQWSSNPLTFGAGTKLELK
Regarding B19, the figures for the EC50 with Human B7-H3-his (human) [1] and with Human B7-H3-his (human) [2] were 0.194 µg/mL and 0.132 µg/mL, respectively.

B20: IL-P7-C05 (antibody, V domains shown)
VH: EVQLVESGGDLVQPGGSLKLSCAASGFTFSSYGMSWVRQTPDKRLELVATINSNGGTTYYPDSVKGRFTISRDNAKHTLYLQMSSLKSEDTAMYYCTRNEEFRRGLAYWGQGTLVTVSA
VL: DIQMIQSPASLSVSVGETVTITCRASENIYSNLAWYQQKQGKSPQLLVYAATNLADGVPSRFSGSGSGTQYSLKINSLQSEDFGSYYCQHFWGTPPWTFGGGTKLEIK
As to B20, the figures for the EC50 in the experiment with Human B7-H3-his (human) [1] and in the experiment with Human B7-H3-his (human) [2] were 0.044 µg/mL and 0.0788 µg/mL, respectively.

B21: IL-P7-C05-H1L1 (antibody, V domains shown)
VH: EVQLVESGGGLVQPGGSLRLSCAASGFTFSSYGMSWVRQAPGKGLELVATINSNGGTTYYPDSVKGRFTISRDNAKHTLYLQMSSLRAEDTAVYYCTRNEEFRRGLAYWGQGTLVTVSS
VL: DIQMTQSPSSLSASVGDRVTITCRASENIYSNLAWYQQKPGKAPKLLVYAATNLADGVPSRFSGSGSGTDYTLTISSLQPEDFATYYCQHFWGTPPWTFGQGTKLEIK
B21: the EC50 in the experiment with Human B7-H3-his (human) [1] turned out to be 0.053 µg/mL.
